Experimental data as given in US20030059769, “High affinity nucleic acid ligands to lectins” (published 2003).

How the values were obtained:
P-selectin (PS-Rg) = P-selectin (PS-Rg) (Homo sapiens, UniProt P16109 P16109:42-321); assay: filter; HSMC, 37 C; details: tags: human IgG Fc fusion; chain copies: 2 (stated dimer)
[1] = molecular target: T1, L-selectin on PBMC / lymphocytes (Homo sapiens, UniProt P14151 P14151:39-372); assay: flow; competition with FITC-LD201T1
T1 sequence: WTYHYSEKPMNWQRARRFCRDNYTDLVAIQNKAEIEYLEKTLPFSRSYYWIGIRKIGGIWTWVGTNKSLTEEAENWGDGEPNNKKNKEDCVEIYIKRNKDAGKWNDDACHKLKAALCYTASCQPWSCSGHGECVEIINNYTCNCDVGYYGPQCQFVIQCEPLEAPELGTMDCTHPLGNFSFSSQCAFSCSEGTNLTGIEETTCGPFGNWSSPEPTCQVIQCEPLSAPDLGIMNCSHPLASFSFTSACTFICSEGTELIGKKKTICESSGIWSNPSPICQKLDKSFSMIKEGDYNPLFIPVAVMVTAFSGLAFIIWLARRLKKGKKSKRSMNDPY
Protocol: Binding of evolved ligands to L-selectin presented in the context of a cell surface was tested by flow cytometry experiments with human lymphocytes. Briefly, peripheral blood mononuclear cells (PBMC) were purified on histoplaque by standard techniques. […] Fluorescent staining of cells was quantified on a FACSCaliber fluorescent activated cell sorter (Becton Dickinson, San Jose, Calif.). The affinity of the 2′-F competitor was calculated from the flurorescence inhibition curves.
The ability of full length 2′-F ligands to bind to L-selectin presented in the context of a cell surface was tested by competition-flow cytometry experiments with human peripheral blood lymphocytes.

soluble L-selectin = molecular target: T2, soluble L-selectin (Homo sapiens, UniProt P14151 P14151:39-332); assay: filter; 37 C; details: tags: R&D Systems
T2 sequence: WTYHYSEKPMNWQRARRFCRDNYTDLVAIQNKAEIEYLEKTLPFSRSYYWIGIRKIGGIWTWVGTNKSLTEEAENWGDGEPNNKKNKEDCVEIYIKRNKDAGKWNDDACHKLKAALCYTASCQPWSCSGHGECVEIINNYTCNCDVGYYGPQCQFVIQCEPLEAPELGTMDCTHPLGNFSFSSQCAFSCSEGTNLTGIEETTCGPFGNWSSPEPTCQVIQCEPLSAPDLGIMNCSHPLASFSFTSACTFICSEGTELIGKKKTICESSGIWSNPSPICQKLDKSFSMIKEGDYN
Protocol: (§1) Unless otherwise indicated, all materials used in the 2′-F RNA SELEX against the L-selectin/IgG2 chimera, LS-Rg, were identical to those of Examples 7, paragraph A and 13, paragraph A. SHMCK-140 buffer, used for all SELEX and binding experiments, was 1 mM CaCl₂, 1 mM MgCC₂, 140 mM NaCl, 5 mM KCl. and 20 mM HEPES, pH 7.4. A soluble form of L-selectin, corresponding to the extracellular domains, was purchased from R&D Systems and used for some nitrocellulose filter binding experiments.
(§2) As described in SELEX Patent Applications, a nitrocellulose filter partitioning method was used to determine the affinity of RNA ligands for LS-Rg and for other proteins. Filter discs (nitrocellulose/cellulose acetate mixed matrix, 0.45 μm pore size, Millipore) were placed on a vacuum manifold and washed with 3 ml of SHMCK 140 buffer under vacuum. Reaction mixtures, containing ³²P labeled RNA pools and unlabeled LS-Rg, were incubated in SHMCK 140 for 10-20 min at 37° C., and then immediately washed with 3 ml SHMCK 140. The filters were air-dried and counted in a Beckman LS6500 liquid scintillation counter without fluor. Alternatively, binding studies employed 96 well micro-titer manifolds essentially as described in Example 13, paragraph E.
(§3) These calculations assume two ligand binding sites per chimera.

L-selectin (LS-Rg) [2] = molecular target: T3, L-selectin (LS-Rg) (Homo sapiens, UniProt P14151 P14151:39-332); assay: filter; 37 C; details: tags: human IgG2 Fc fusion
T3 sequence: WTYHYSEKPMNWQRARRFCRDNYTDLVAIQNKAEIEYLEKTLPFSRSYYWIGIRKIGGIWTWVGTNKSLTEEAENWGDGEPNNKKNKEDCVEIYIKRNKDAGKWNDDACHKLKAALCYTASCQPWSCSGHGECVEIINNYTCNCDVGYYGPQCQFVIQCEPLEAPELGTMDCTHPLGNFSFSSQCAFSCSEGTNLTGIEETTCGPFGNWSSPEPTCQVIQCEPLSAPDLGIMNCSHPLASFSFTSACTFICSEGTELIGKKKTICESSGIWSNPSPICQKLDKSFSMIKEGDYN
Protocol: as §1, §2, §3

[3] = molecular target: T4, Wheat germ agglutinin (WGA) (Triticum vulgare, UniProt P10968 P10968:27-197); assay: filter; HBSS, room temperature; details: tags: E Y Laboratories
T4 sequence: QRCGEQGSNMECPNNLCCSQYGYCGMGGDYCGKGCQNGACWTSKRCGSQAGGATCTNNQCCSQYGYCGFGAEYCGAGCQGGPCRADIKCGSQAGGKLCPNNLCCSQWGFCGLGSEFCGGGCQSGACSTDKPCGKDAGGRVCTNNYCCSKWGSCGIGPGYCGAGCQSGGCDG
Protocol: As described in SEIEX patent applications, a nitrocellulose filter partitioning method was used to determine the affinity of RNA ligands for WGA and for other proteins. Filter discs (nitrocellulose/cellulose acetate mixed matrix, 0.45 μm pore size, Millipore; or pure nitrocellulose, 0.45 μm pore size, Bio-Rad) were placed on a vacuum manifold and washed with 4 ml of HBSS buffer under vacuum. Reaction mixtures, containing ³²P labeled RNA pools and unlabeled WGA, were incubated in HBSS for 10 min at room temperature, filtered, and then imnmediately washed with 4 ml HBSS. The filters were air-dried and counted in a Beckman LS6500 liquid scintillation counter without fluor.
The dissociation constants for representative members of families 1-9 and orphan ligands were determined by nitrocellulose filter binding experiments and are listed in Table 3. These calculations assume one RNA ligand binding site per WGA monomer.

L-selectin (LS-Rg) [4] = molecular target: T3, L-selectin (LS-Rg); assay: inhibition; sialyl-LewisX competition ELISA; details: tags: human IgG2 Fc fusion; chain copies: 2 (stated dimer)
Protocol: SLe^X-BSA (Oxford GlycoSystems, Oxford, UK) in 1X PBS, without CaCl₂, and MgCl₂, (GIBCO/BRL) was immobilized at 100 ng/well onto a microtiter plate by overnight incubation at […]. The wells were blocked for 1 h with the assay buffer consisting of 20 mM HEPES, 111 mM NaCl, 1 mM CaCl₂, 1 mM MgCl₂, 5 mM KCl, 8.9 mM NaOH, final pH 8, and 1% globulin-free BSA (Sigma). The reaction mixtures, incubated for 90 min with orbital shaking, contained 5 nM L-Selectin-Rg, a 1:100 dilution of anti-human IgG-peroxidase conjugate (Sigma), and 0 - 50 ruM of competitor in assay buffer. After incubation, the plate was washed with BSA-free assay buffer to remove unbound chimera-antibody complex and incubated for 25 min with O-phenylenediamine dihydrochloride peroxidase substrate (Sigma) by shaking in the dark at 22°0 C. Absorbance was read at 450 nm on a Bio-Kinetics Reader, Model EL312e (Bio-Tek Instruments, Laguna Hills, Calif.). Values shown represent the mean ±s.e from duplicate, or triplicate, samples from one representative experiment.
Sialyl Lewis^X is the minimal carbohydrate ligand bound by selecting.

[5] = chain copies: homodimer, label: 32P
[6] = chain copies: 2 (stated homodimer)

P-selectin (PS-Rg), sequence (P16109 42-321, one chain of several): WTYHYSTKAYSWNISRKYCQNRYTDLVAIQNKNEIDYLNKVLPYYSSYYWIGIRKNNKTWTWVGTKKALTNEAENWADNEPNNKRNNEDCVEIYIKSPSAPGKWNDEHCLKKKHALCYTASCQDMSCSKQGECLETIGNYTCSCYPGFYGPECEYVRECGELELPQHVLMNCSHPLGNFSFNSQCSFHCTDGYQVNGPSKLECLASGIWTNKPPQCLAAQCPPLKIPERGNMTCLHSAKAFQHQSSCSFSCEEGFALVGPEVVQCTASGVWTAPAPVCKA

B1: PF387 (ssRNA)
RNA: GGGAGACAAGAAUAAACGCUCAACGCACCAGGAACAACGAGAACCAUCAGUAAACGCGAGCGAUUGCAUGUUCGACAGGAGGCUCACAACAGGC
modifications: 2'-F C and U
Kd (P-selectin (PS-Rg)): 0.016 nM

B2: LF1514 (ssRNA)
RNA: GGGAGGACGAUGCGGUACCUCAAAUUGCGUGUUUUCAAGCAGUAUCAGACGACUCGCCCGA
modifications: 2'-F C and U
Kd [1]: 0.8 nM

B3: PF404 (ssRNA)
RNA: GGGAGACAAGAAUAAACGCUCAAUCAGCAGUAAGCGAUCCUAUAAAGAUCAACUAGCCAAAGAUGACUUAUUCGACAGGAGGCUCACAACAGGC
modifications: 2'-F C and U
Kd (P-selectin (PS-Rg)): 0.0475 nM

B4: LF1536 (ssRNA)
RNA: GGGAAGACGAUGCGGCGCUCAAAUAAUGCGUUAAUCGAAUUCGCCCAGACGACUCGCCCGA
modifications: 2'-F C and U
Kd (soluble L-selectin): 0.22 nM

B5: LF1513 (ssRNA)
RNA: GGGAGGACGAUGCGGGCUCUUCAGCAACGUGUUAUCAAGUUAGCCCAGACGACUCGCCCGA
modifications: 2'-F C and U
Kd [1]: 4 nM

B6: LF1614 (ssRNA)
RNA: GGGAGGACGAUGCGGCAAACAAGCUCAAAUGACGUGUUUUUCAAGUCCUUGUUGUCAGACGACUCGCCCGA
modifications: 2'-F C and U
Kd (L-selectin (LS-Rg) [2]; chain copies: 2 (stated dimer)): 0.17 nM

B7: LF1613 (ssRNA)
RNA: GGGAGGACGAUGCGGUGCUAUUCUUAAGCGGCGUGUUUUUCAAGCCAAUAUCAUCAGACGACUCGCCCGA
modifications: 2'-F C and U
Kd [1]: 0.2 nM

B8: WGA ligand 6.9 (ssRNA)
RNA: GGGAAAAGCGAAUCAUACACAAGACUCGGCGGGAACGAAGUGUGUGAGUAACGAUCACUUGGUACUAAAAGCCCGCUCCGCCAGAGACCAACCGAGAA
modifications: 2'-NH2 on all C and U
Kd [3, 5]: 396 nM

B9: PF398 (ssRNA)
RNA: GGGAGACAAGAAUAAACGCUCAACGAACCACGGGGAAAUCCACCAGUAACACGCGAGGCAAACAGACCCUCUUCGACAGGAGGCUCACAACAGGC
modifications: 2'-F C and U
Kd (P-selectin (PS-Rg)): 0.046 nM

B10: WGA ligand 6.23 (ssRNA)
RNA: GGGAAAAGCGAAUCAUACACAAGACUCGGCGGGAAUCGAAAGUGUACUGAAUUAGAACGGUGGGCCUGCUCAUCGUGCUCCGCCAGAGACCAACCGAGAA
modifications: 2'-NH2 C and U
Kd [3, 6]: 824 nM

B11: LF1708 (ssRNA)
RNA: GGGAGGACGAUGCGGAUCUUAAGCAGCGCGUCAAUCGAGCUAACCCAGACGACUCGCCCGAG
modifications: 2'-F on all C and U
Kd (L-selectin (LS-Rg) [2]; chain copies: dimer, label: 32P): 70 nM

B12: LF1618 (ssRNA)
RNA: GGGAGGACGAUGCGGUUAGCCUACACUCUAGGUUCAGUUUUCGAAUCUUCCACCGCAGACGACUCGCCCGA
modifications: 2'-F C and U [all C and U 2'-F; W in the 3' fixed region (cagacgacucgcccga) = A]
Kd [1]: 25 nM

B13: WGA ligand 6.5 (ssRNA)
RNA: GGGAAAAGCGAAUCAUACACAAGAGUCCCUAGGGAUGCAACGGGCAGCAUUCGCAUAGGAGUAAUCGGAGGUCGCUCCGCCAGAGACCAACCGAGAA
modifications: 2'-NH2 C and U
Kd [3, 6]: 678 nM

B14: PF386 (ssRNA)
RNA: GGGAGACAAGAAUAAACGCUCAAACAAGAGAGUCAAACCAAGUGAGAUCAGAGCGUUUAGCGCGGAAAGCACAUUCGACAGGAGGCUCACAACAGGC
modifications: 2'-F C and U
Kd (P-selectin (PS-Rg)): 0.0455 nM

B15: LF1521 (ssRNA)
RNA: GAGGACGAUGCGGGCUCUUAAGCAACGUGUUAUCAAGUUAGCCCAGACGACUCGCCCGA
modifications: 2'-F C and U
Kd (soluble L-selectin): 0.25 nM

TAGCCATTCACCATGGCCCCTTCCTACGTATGTTCTGCGGGTGGCTTA (ssDNA) [LD174T1]
IC50 (L-selectin (LS-Rg) [4]): ~3 nM

B16: LF1808 (ssRNA)
RNA: GGGAGGACGAUGCGGCAUGGUCUUAGGCGACGCGUUUAUAUCGAGUCACCAUGCUCAGACGACUCGCCCGA
modifications: 2'-F C and U
Kd (L-selectin (LS-Rg) [2]; chain copies: 2 (stated dimer)): 0.6 nM

B17: LF1712 (ssRNA)
RNA: GGGAGGACGAUGCGGGAUCUUAAGCAGUGCGUUAUUCGAACUAUCCCAGACGACUCGCCCGA
modifications: 2'-F C and U
Kd (soluble L-selectin): 0.065 nM

AGCTGGCGGTACGGGCCGTGCACCCACTTACCTGGGAAGTGAGCTTA (ssDNA) [LD196T1]
IC50 (L-selectin (LS-Rg) [4]): ~3 nM

B18: LF1527 (ssRNA)
RNA: GGGAGGACGAUGCGGACCCUCAAAUAGCGUGCAUUUCAAGCUGGUCAGACGACUCGCCCGA
modifications: 2'-F C and U
Kd (L-selectin (LS-Rg) [2]; chain copies: 2 (stated dimer)): 0.32 nM

B19: LF1529 (ssRNA)
RNA: GGGAGGACGAUGCGGACCCUCAAAUAACGUGUCUUUCAAGUUGGUCAGACGACUCGCCCGA
modifications: 2'-F C and U
Kd (L-selectin (LS-Rg) [2]; chain copies: 2 (stated dimer)): 0.6 nM

B20: LF1815 (ssRNA)
RNA: GGGAGGACGAUGCGGCCAUCGGUCUUGGGCAACGCGUUUUCGAGUUACCUAUGGUCAGACGACUCGCCCGA
modifications: 2'-F C and U
Kd (soluble L-selectin): 0.18 nM

B21: WGA ligand 11.6 (ssRNA)
RNA: GGGAAAAGCGAAUCAUACACAAGACUGGGGAGCAGGAUAUGAGAUGUGCGGGGCAAUGGAGUCGUGACGAACCGCUCCGCCAGAGACCAACCGAGAA
modifications: 2'-NH2 on all C and U
Kd [3, 5]: 702 nM
